Results on 1 molecule are retold here after patent publication US20230357447A1 (JANUX THERAPEUTICS, published 2023).

Ends that are not written are not given here.

By IC50 is commonly meant the point on the concentration scale where inhibition reaches its midpoint. A lower IC50 goes with inhibition by little substance.

In the experiment the target is T1, Ab-12, anti-PD-L1xCD28 non-masked antibody in Vh format.
T1 construct: also called PDL1xCD28 non-masked (Vh)
As to the kind of experiment: competition ELISA: peptide titrated against 5 nM Ab-12; binding of Ab-12 to captured biotinylated CD28 antigen is read; table prints 'IC50 nM' but the axis is Log [Peptide, uM] and the curve falls between Log 0.5 and Log 2.

Turning to GYCHYWGDMVMWCG (cysteine pairing not given here; also: biotinylated, site not given here, also called Peptide-12_200 nM) [Peptide-12], the 50% inhibitory concentration (IC50) turned out to be 21 nM.
